What all share (assay type): biochemical
Data set [1] can be described thus: Crystalline cellulose (Avicel) hydrolysis by recombinant cellobiohydrolases. To be noted: 70° C., pH 5.0, enzyme 1.4 μM. Here is the method: The purified recombinant cellobiohydrolases Ct Cel7A, Ta Cel7A, Ta Cel7A+Tr CBD, Ta Cel7A+Ct CBD, At Cel7A as well as the core version of Ct Cel7A (see below) were tested in equimolar amounts in crystalline cellulose hydrolysis at two temperatures, 45° C. and 70° C.; the purified T. reesei Tr Cel7A and its core version (see below) were used as comparison. The crystalline cellulose (Ph 101, Avicel; Fluka, Bucsh, Switzerland) hydrolysis assays were performed in 1.5 ml tube scale 50 mM sodium acetate, pH 5.0. Avicel was shaken at 45° C. or at 70° C., with the enzyme solution (1.4 μM), and the final volume of the reaction mixture was 325 μl. The hydrolysis was followed up to 24 hours taking samples at six different time points and stopping the reaction by adding 163 μl of stop reagent containing 9 vol of 94% ethanol and 1 vol of 1 M glycine (pH 11). […] The formation of soluble reducing sugars in the supernatant was determined by para-hydroxybenzoicacidhydrazide (PAHBAH) method (Lever, 1972) using a cellobiose standard curve (50 to 1600 μM cellobiose). […] The absorbance of the samples at 405 nm was measured.
The core versions of the cellobiohydrolases harboring a CBD in their native form were obtained as follows: Ct Cel7A and Tr Cel7A were exposed to proteolytic digestion to remove the cellulose-binding domain. […] The product was analysed in SDS-PAGE.

Data set [2] is described as follows: Hydrolysis with CBH enzyme mixtures, Avicel. The settings on record: additional enzymes EGII, bG; 48 h, 45° C., pH 5.0. An outline of the steps:
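Each CBH/Cel7 dosed at 14.5 mg/g substrate dry matter with T. reesei EGII/Cel5A (3.6 mg/g) or with EGI (1.8 mg/g), EGII (1.8 mg/g), xylanase (5000 nkat/g) and AXE (250 nkat/g), plus β-glucosidase (176 nkat/g d.w.). Avicel at 10 mg/ml in 0.05 M sodium acetate, stirred 48 h at 45° C, triplicates; reducing sugars by DNS versus glucose standard.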

Data set [3] is described as follows: Hydrolysis with CBH enzyme mixtures, spruce. To be noted: additional enzymes EGII, bG; 48 h, 45° C., pH 5.0. An outline of the steps:
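Washed SO2-steam pre-treated spruce (10 mg dry matter/ml, 0.05 M sodium acetate) hydrolysed 48 h at 45 °C with each CBH/Cel7 (14.5 mg/g) plus T. reesei EGII (3.6 mg/g), or plus EGI, EGII, xylanase and AXE, all with added β-glucosidase. Reducing sugars measured by DNS against glucose.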

A short description of data set [4]: Hydrolysis with CBH enzyme mixtures, corn stover. To be noted: additional enzymes EGII, bG, 48 h, 45° C., pH 5.0. In a few lines:
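Purified recombinant CBH/Cel7 (14.5 mg/g substrate dry matter) combined with T. reesei EGII/Cel5A or an EGI/EGII/xylanase/AXE mixture, plus β-glucosidase (176 nkat/g). Washed wet-oxidized corn stover, 10 mg/ml in 0.05 M sodium acetate, stirred 48 h at 45° C, triplicate. Reducing sugars by DNS against glucose, versus inactivated-enzyme references.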

Data set [5] in a line: Hydrolysis with CBH enzyme mixtures, willow. The settings on record: additional enzymes EGII, bG, 48 h, 45° C., pH 5.0. In a few lines:
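Purified CBH/Cel7 (14.5 mg/g substrate dry matter) combined with T. reesei EGII/Cel5A (3.6 mg/g) or with EGI (1.8 mg/g), EGII (1.8 mg/g), xylanase pI 9 (5000 nkat/g) and AXE (250 nkat/g), plus β-glucosidase (176 nkat/g). Washed steam-pretreated willow, 10 mg/ml in 0.05 M sodium acetate, 45° C., 48 h. Reducing sugars by DNS (glucose standard).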

The nature of data set [6]: Xylanase activity on birch xylan. To be noted: purified cellobiohydrolases, 50° C., pH 5.0. On the procedure: (§1) The specific activity of the preparations was determined using 4-methylumbelliferyl-β-D-lactoside (MUL), 4-methylumbelliferyl-β-D-cellobioside (MUG2) or 4-methylumbelliferyl-β-D-cellotrioside (MUG3) as substrate (van Tilbeurgh et al., 1988) in 0.05 M sodium citrate buffer pH 5 at 50° C. for 10 min. Endoglucanase and xylanase activities were determined by standard procedures (according to IUPAC, 1987) using carboxymethyl cellulose (CMC) and birch glucuronoxylan (Bailey et al., 1992) as substrates. Specific activity against Avicel was calculated on the basis of reducing sugars formed in a 24 h reaction at 50° C., pH 5.0, with 1% substrate and 0.25 μM enzyme dosage. The protein content of the purified enzyme preparations was measured according to Lowry et al., 1951. To characterize the end products of hydrolysis, soluble sugars liberated in 24 h hydrolysis experiment, as described above, were analysed by HPLC (Dionex). Purified cellobiohydrolase I (CBHI/Cel7A) of Trichoderma reesei was used as a reference.
Acremonium thermophilum ALKO4245 was grown as described in Example 1. The culture supernatant was incubated at 70° C. for 24 hours after which, it was concentrated by ultrafiltration. The pure xylanase was obtained by sequential purification with hydrophobic interaction and cation exchange chromatography followed by gel filtration. The xylanase activity was determined using birch xylan as substrate (procedure of IUPAC 1987). Protein was assayed by BioRad Protein Assay Kit (Bio-Rad Laboratories) using bovine serum albumin as standard.
Thermoascus aurantiacus ALKO4242 was grown as described in Example 1. The pure xylanase was obtained by sequential purification with hydrophobic interaction, anion, and cation exchange chromatography followed by gel filtration. The xylanase activity was determined using birch xylan as substrate (procedure of IUPAC 1987). Protein was assayed by BioRad Protein Assay Kit (Bio-Rad Laboratories) using bovine serum albumin as standard.

Data set [7] in a line: Endoglucanase activity on carboxymethyl cellulose. The settings on record: purified cellobiohydrolases, 50° C., pH 5.0. Here is the method: as §1
Acremonium thermophilum ALKO4245 was grown as described in Example 1. The culture supernatant was incubated at 70° C. for 24 hours after which it was concentrated by ultrafiltration. The pure endoglucanase was obtained by sequential purification with hydrophobic interaction and cation exchange chromatography followed by gel filtration. The endoglucanase activity of the fractions collected during purification was determined using carboxymethyl cellulose (CMC) as substrate (procedure of IUPAC 1987). Protein content was measured by BioRad Assay Kit (Bio-Rad Laboratories) using bovine serum albumine as standard.
Thermoascus aurantiacus ALKO4242 was grown as described in Example 1. The pure endoglucanase was obtained by sequential purification with hydrophobic interaction and anion exchange chromatography followed by gel filtration. The endoglucanase activity of the fractions collected during purification was determined using carboxymethyl cellulose (CMC) as substrate (procedure of IUPAC 1987). Protein content was measured by BioRad Assay Kit (Bio-Rad Laboratories) using bovine serum albumine as standard.

Data set [8] in a line: Specific activity on MUG2. To be noted: purified cellobiohydrolases, 50° C., pH 5.0. Here is the method:
as §1

Data set [9] in a line: Specific activity on MUG3. To be noted: purified cellobiohydrolases, 50° C., pH 5.0. Here is the method: as §1
The nature of a further data set: Specific activity on MUL. To be noted: purified cellobiohydrolases, 50° C., pH 5.0. On the procedure: as §1
Data set [10] is described as follows: Specific activity against Avicel. To be noted: 50° C., pH 5.0, 24 h, 1% substrate, 0.25 μM enzyme. Here is the method: as §1
Data set [11] can be described thus: Thermal stability of purified cellobiohydrolases. To be noted: 0.1% BSA, pH 5.0, 60 min, MUL substrate. On the procedure: Thermal stability of the purified cellobiohydrolases was determined at different temperatures. The reaction was performed in the presence of 0.1% BSA at pH 5.0 for 60 min using 4-methylumbelliferyl-β-D-lactoside as substrate. C. thermophilum ALKO4265 CBH/Cel7A and A. thermophilum ALKO4245 CBH/Cel7A were stable up to 65° and 60° C., respectively. The T. reesei reference enzyme (CBHI/Cel7A) retained 100% of activity up to 55° C.

The nature of data set [12]: pH optimum of recombinant CBH/Cel7 proteins. To be noted: McIlvaine buffer, pH range 3.0-8.0, MUL, 50° C., 10 min. Here is the method: (§2) The recombinant CBH/Cel7 enzyme preparations were characterized in terms of pH optimum and thermal stability. The pH optimum of the recombinant CBH/Cel7 proteins from Thermoascus aurantiacus, Chaetomium thermophilum, and Acremonium thermophilum were determined in the universal McIlvaine buffer within a pH range of 3.0-8.0 using 4-methylumbelliferyl-β-D-lactoside (MUL) as a substrate (FIG. 3A). The pH optimum for Ct Cel7A and At Cel7A enzymes is at 5.5, above which the activity starts to gradually drop. The pH optimum of the recombinant crude Ta Cel7A is at 5.0 (FIG. 3A). Thermal stability of the recombinant Cel7 enzymes was determined by measuring the MUL activity in universal McIlvaine buffer at the optimum pH with reaction time of 1 h.

Data set [13] is described as follows: Thermal stability of recombinant Cel7 enzymes. To be noted: MUL activity, optimum pH, reaction time 1 h. Here is the method:
as §2

B1: Ta Cel7A + Tr CBD: Thermoascus aurantiacus Cel7A fused to linker and CBD of Trichoderma reesei CBHI/Cel7A, SEQ ID NO: 28 (protein)
chain: MYQRALLFSFFLAAARAQQAGTVTAENHPSLTWQQCSSGGSCTTQNGKVVIDANWRWVHTTSGYTNCYTGNTWDTSICPDDVTCAQNCALDGADYSGTYGVTTSGNALRLNFVTQSSGKNIGSRLYLLQDDTTYQIFKLLGQEFTFDVDVSNLPCGLNGALYFVAMDADGGLSKYPGNKAGAKYGTGYCDSQCPRDLKFINGQANVEGWQPSANDPNAGVGNHGSCCAEMDVWEANSISTAVTPHPCDTPGQTMCQGDDCGGTYSSTRYAGTCDPDGCDFNPYRQGNHSFYGPGQIVDTSSKFTVVTQFITDDGTPSGTLTEIKRFYVQNGKVIPQSESTISGVTGNSITTEYCTAQKAAFGDNTGFFTHGGLQKISQALAQGMVLVMSLWDDHAANMLWLDSTYPTDADPDTPGVARGTCPTTSGVPADVESQYPNSYVIYSNIKVGPIGSTGNPSGGNPPGGNPPGTTTTRRPATTTGSSPGPTQSHYGQCGGIGYSGPTVCASGTTCQVLNPYYSQCL
Take B1: the “Avicel hydrolysis as compared to T. reesei Cel7A” value in data set [1] is recorded as “superior”. Moreover, in data set [2], the “Hydrolysis products as reducing sugars, Avicel” value is 5.8 mg/mL. For the same molecule, the “Hydrolysis products as reducing sugars, SPRUCE” value in data set [3] turned out to be 4.0 mg/mL. Besides, the “Hydrolysis products as reducing sugars, WOCS” value in [4] (EGI, XYL, AXE) came to 7.2 mg/mL; in data set [4], 4.4 mg/mL. The “Hydrolysis products as reducing sugars, WILLOW” value worked out at 5.9 mg/mL in data set [5] (EGI, XYL, AXE) and 4.0 mg/mL in data set [5].

B2: At Cel7A: cellobiohydrolase of Acremonium thermophilum ALKO4245, gene At cel7A, amino acid SEQ ID NO: 6, with CBD (protein)
chain: MYTKFAALAALVATVRGQAACSLTAETHPSLQWQKCTAPGSCTTVSGQVTIDANWRWLHQTNSSTNCYTGNEWDTSICSSDTDCATKCCLDGADYTGTYGVTASGNSLNLKFVTQGPYSKNIGSRMYLMESESKYQGFTLLGQEFTFDVDVSNLGCGLNGALYFVSMDLDGGVSKYTTNKAGAKYGTGYCDSQCPRDLKFINGQANIDGWQPSSNDANAGLGNHGSCCSEMDIWEANKVSAAYTPHPCTTIGQTMCTGDDCGGTYSSDRYAGICDPDGCDFNSYRMGDTSFYGPGKTVDTGSKFTVVTQFLTGSDGNLSEIKRFYVQNGKVIPNSESKIAGVSGNSITTDFCTAQKTAFGDTNVFEERGGLAQMGKALAEPMVLVLSVWDDHAVNMLWLDSTYPTDSTKPGAARGDCPITSGVPADVESQAPNSNVIYSNIRFGPINSTYTGTPSGGNPPGGGTTTTTTTTTSKPSGPTTTTNPSGPQQTHWGQCGGQGWTGPTVCQSPYTCKYSNDWYSQCL
As to B2, in [6], the “Specific activity, Xylan” value is on record as 11.3 nkat/mg. The “Specific activity, CMC” value in data set [7] stood at 26.2 nkat/mg. Further, the “Specific activity, MUG2” value in data set [8] came to 9.2 nkat/mg. Also, the “Specific activity, MUG3” value in data set [9] is listed as 1.3 nkat/mg. In the data set “Specific activity on MUL”, the “Specific activity, MUL” value was 21.5 nkat/mg. Also, the “Specific activity, Avicel” value in [10] is 1.8 nkat/mg. In addition, the “Thermal stability: temperature up to which stable / 100% of activity retained” value in data set [11] was at most 60 °C. The pH optimum in data set [12] is given as 5.5. In data set [13], the “Thermal stability at the higher temperatures (≧65° C.)” value was “clearly less stable”. For the same molecule, the “Hydrolysis products as reducing sugars, Avicel” value in [2] was found to be 5.3 mg/mL. For the same molecule, the “Hydrolysis products as reducing sugars, SPRUCE” value in [3] is 3.3 mg/mL. In addition, the “Hydrolysis products as reducing sugars, WOCS” value in data set [4] (EGI, XYL, AXE) is 6.4 mg/mL; in [4], 4.5 mg/mL. For the same molecule, the “Hydrolysis products as reducing sugars, WILLOW” value in data set [5] (EGI, XYL, AXE) came out at 5.4 mg/mL; in data set [5], 3.3 mg/mL.

The record behind these values is US8409836B2, “Treatment of cellulosic material and enzymes useful therein” (Roal Oy, priority 2005, dated 2013).
